Laboratory results taken from US20250034594A1, “RNA-GUIDED GENOME RECOMBINEERING AT KILOBASE SCALE” (THE BOARD OF TRUSTEES OF THE LELAND STANFORD JUNIOR …, priority 2021, published 2025).
Where a chain is given by its changes, count along the chain named.

B1: SSAP_158: SEQ ID NO: 327; Nakamurella lactea (protein)
chain: ASNLAARAAEQVEQQTAPNRPPTIKEQIGRMESQFALAMPRGSEAAQLVRDAITAINTNPQLAECTPASVLGALMTCAQLGLRPGVLGHAWVLPFRSKGVMQAQLVIGYQGLVELAHRTGQVASLIAREVHERDHFDVDYGLADSLIHKPLLNGDRGPVTGYYAIVKFKGGGHSFIYASKADVEAHRDKFSKMKSFGPWVDNFDSMALKTVVRMLAKWMPKSTEFANAISADEGVRVDYSPTADVAQATEYVQPQLEEAPVEGVVVSEGGES
modifications: Nakamurella lacteal
notes: Nakamurella lactea
B2: SSAP_16: SEQ ID NO: 185 (protein)
chain: MAKENYSDPNGKLLNSITTFEVNGEEVKLSGNIIRDYLVSGNAEVTDQEIIMFLQLCKYQKLNPFLNEAYLVKFKNTKGPDKPAQIIVSKEAFMKRAETHEQYDGFEAGVIVERGGEIIELEGAVSLASDKLLGGWAKVFRKDRNRPVSVRISEKEFNKRQSTWNTMPLTMMRKTAVVNAMREAFPDNLGAMYTEEEQGSLQNTETSVQQEIKQNANAEVLDIPSQQNEVPDFKEVREPEHVEMPPIYGEQQSTPPARPY
B3: SSAP_262: SEQ ID NO: 431; YqaK Schleiferilactobacillus shenzhenensis LY-73 (protein, listed as Schleiferilactobacillus shenzhenensis)
chain: SAVSESKDLQHVDQLSVLNSAMTAASLNLPINQNLGFFYLVPYKGIAQAQMGYKGYIQLAQRSGQYQRLNAIPVYADEFGSWNPLTEELDYTPHFEDRKASDKPVGYVGFFKLANGFEKTVYWSRKQIEAHRDRFSKSSKSSASPWNTDFDAMALKTVLRNLITKWGPMTTDIQRANDADEGDYKNDLSTDTSEPKDVTPGASLEQFLGETDQQQKPATKPAPKKKAEEAKPNDLKPDVTHDPNEHTEQTSLSDDDLPFD
B4: SSAP_4: SEQ ID NO: 166 (protein)
chain: MSTALATLAGKLAERVGMDSVDPQELITTLRQTAFKGDASDAQFIALLIVANQYGLNPWTKEIYAFPDKQNGIVPVVGVDGWSRIINENQQFDGMDFEQDNESCTCRIYRKDRNHPICVTEWMDECRREPFKTREGREITGPWQSHPKRMLRHKAMIQCARLAFGFAGIYDKDEAERIVENTAYTAERQPERDITPVNDETMQEINTLLIALDKTWDDDLLPLCSQIFRRDIRASSELTQAEAVKALGFLKQKAAEQKVAA
modifications: Lambda
B5: SSAP_305: SEQ ID NO: 474 in b312 (Table 9 prints 424); Clostridium akagii (protein, listed as Clostridium akagii)
chain: ATSESLKNQLVNKETRPPKDPFKALVYSAGIKKRFEDMLDKQANGFITSLLNLKQDKLKSCDDFTVLGSALKAAALKLPIDPNLGFAWIIPFKNHGKLEAQFQIGYKGFIQMAQRSGQYKKLNVTEIYEGQLKSFNPLTEEIVLDLDNIKSDLRKINKRYLIVMRMNLLALHLRKISKG
B6: SSAP_221: SEQ ID NO: 390; Streptomyces sp. 351MFTsu5.1 (protein, listed as Streptomyces sp.)
chain: SQISNAIEKRDQGPGAVIEQYKQELALVAASHVKVDTFARLAVGALRQNPKLAAAAQSNPGSLMSALMTAARLGLEPGTEQFYLRPIKRKGVAEVQGIVGYQGIVELIYNAGAASSVVVEVVRANDQFNYVPGLHERPVHNVDWFGDRGDLVGVYAYAVMAGGATSKVVVLSRTHINRAKAKSDGADSDYSPWRTDEEAMWLKTAARRLGKWVPTSAERLTMPAERTDTVLPVGSAAPALDAADPDEDEGPVDGELEPAGGWPETAQPPQ
B7: SSAP_193: SEQ ID NO: 362; Mesotoga sp. TolDC (protein, listed as Mesotoga sp.)
chain: KASEIASMVKKEDERRNHKPDPLAGIVKNLTSIKGEIANALPDAGITPERMIRIVVTLLRQNKSLAEAAMQNPASLLGAVMMAAQLGLDPTNGLDQCALVPRKGKVCFDIMYEGLVELGYRSDRMESIVARTVYEKDTFSLKYGLNEELVHIPYLDGDPGESKGYYMVGKLKGGGNIIVYMTKEQVHKIRDRYSVAYKAGLSGSRKDSPWFTSEDRMGEKTVVKAGFRWIPKSPIIRTALALDETAREASRLPMRN
B8: SSAP_6: SEQ ID NO: 175 (protein)
chain: STALATLAGKLAERVGMDSVDPQELITTLRQTAFKGDASDAQFIALLIVANQYGLNPWTKEIYAFPDKQNGIVPVVGVDGWSRIINENQQFDGMDFEQDNESCTCRIYRKDRNHPICVTEWMDECRREPFKTREGREITGPWQSHPKRMLRHKAMIQCARLAFGFAGIYDKDEAERIVENTAYTAERQPERDITPVNDETMQEINTLLIALDKTWDDDLLPLCSQIFRRDIRASSELTQAEAVKALGFLKQKATEQKVAA
B9: SSAP_12: SEQ ID NO: 181 (protein)
chain: B8 chain with T254S
B10: SSAP_197: SEQ ID NO: 366; Arsenophonus sp. ENCA (protein, listed as Arsenophonus sp.)
chain: NTELETMNNVYDNLQSVIMQQGIAALLPAQVTPEQFTRTAATALIENVDLQNADKQSLVLALTRCAKDGLMPDGREAALVVRSTKVNKQFVKKAVYMPMVDGVIKRARQSGQVANIIAKVVYSQDEFEYVIDENGEHLTHRPAFVDGDDIVKVYAFAKLNSGELVVEVMSRAGVEKIRDTVQSAKYDSSPWVKWFDRMALKTVIHRLARRLPCASELFSLFEVYEDANSTEKTLRMAPASFKRLSIN

What was measured:
Type in all cases: cell-based
[1] = system: gene editing with dCas9; test: Screen of 322 new SSAP proteins, gene editing activity with dCas9 (Table 5); set-up: dCas9 with SSAP activity: scale not given here
Summary of the method: (§1)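 First, 322 new single-strand annealing proteins are identified from sequences. Next they are synthesized. Finally each is assayed for editing in combination with Cas9 and, separately, dCas9.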

[2] = system: gene editing with Cas9; test: Screen of 322 new SSAP proteins, gene editing activity with Cas9 (Table 5); set-up: Cas9 with SSAP activity: scale not given here
Summary of the method: as §1

[3] = system: mammalian cells; test: Arrayed SSAP library screening, cell viability by live cell counts via flow cytometry
Experimental: (§2) Each SSAP encoding plasmid was tested in duplicate, including a negative control (same plasmid encoding Flag_HA which is not expected to promote gene editing). Transfections were in 96-well plates and transfection efficiency was estimated to be 50%.
(§3) Three days after transfection, mKate positive cells and cell viability were quantified across all replicates, along with positive (original RecT SSAP) and negative (Flag-HA control protein) controls. […] At the same time, the cell viability was measured by live cell counts via flow cytometry, to help quantify the fitness effect of SSAP on mammalian cells.
(§4) SSAP proteins are identified by Uniparc deposit number and SEQ ID NO. Alignment numbers correspond to SSAPs in FIGS. 58, 59, and 60.

[4] = system: endogenous genome targets (ACTB, HSP90AA1); test: Arrayed SSAP library screening, mKate knock-in assay (editing efficiency); details: average of HSP90 and ACTB, 3 days after transfection; for Editing Efficiency (Normalized, Average, two targets): fold over negative control (Flag_HA); for Editing Efficiency (Absolute, Average, two targets): percent of mKate knock-in
Experimental: Arrayed SSAP library screening on endogenous genome targets (ACTB. HSP90AA1) using mKate knock-in assay.
SSAP-encoding plasmids were purified and quantified.
as §2, §3, §4

[5] = system: gene editing with Cas9 and dCas9; test: Screen of 322 new SSAP proteins, activity across all experiments (Cas9 and dCas9, Table 5); set-up: scale not given here
Summary of the method: as §1

| Molecule | dCas9 with SSAP activity [1] | dCas9 with SSAP activity (normalized) [1] | Cas9 with SSAP activity [2] | Cas9 with SSAP activity (normalized) [2] | Cell Viability (Average, two targets) [3] | Editing Efficiency (Normalized, Average, two targets) [4] | Editing Efficiency (Absolute, Average, two targets) [4] | Activity across all experiments [5] |
| --- | --- | --- | --- | --- | --- | --- | --- | --- |
| B1 | −6.910 | −1.386 | −1.229 | −0.520 | 0.9945 | 5.44 | 13.45 | −4.070 |
| B2 | −5.666 | −1.047 | −0.858 | −0.452 | 1.146 | 8.461 | 20.95 | −3.262 |
| B3 | −6.590 | −1.417 | −2.947 | −0.511 | 1.122 | 3.676 | 9.1025 | −4.769 |
| B4 | −6.997 | −1.447 | −2.882 | −0.474 | 1.192 | 5.57 | 13.8 | −4.940 |
| B5 | −6.032 | −1.721 | 0.745 | 0.408 | 0.5578 | 4.612 | 11.425 | −2.644 |
| B6 | −8.056 | – | −4.494 | −0.728 | 0.9772 | 4.587 | 11.35 | −6.275 |
| B7 | −5.951 | −1.083 | −0.442 | −0.140 | 1.147 | 5.034 | 12.465 | −3.196 |
| B8 | −5.703 | −1.399 | −8.056 | – | 1.282 | 4.879 | 12.075 | −6.879 |
| B9 | −7.567 | −1.196 | −7.814 | −1.324 | 1.291 | 4.263 | 10.5525 | −7.690 |
| B10 | −6.622 | −1.370 | −2.785 | −1.134 | 1.021 | 5.661 | 14.025 | −4.703 |
